Assay results published in paper PMC6699081, “Development and application of a transcriptional sensor for detection of heterologous acrylic acid production in E. coli” (Microbial Cell Factories, 2019).

Tests used:
C=CC(N)=O [1] = system: T1, C=CC(N)=O; assay: purified protein; type: biochemical, Bacillus sp. (in: firmicutes); conditions: 20 mM potassium phosphate pH 7.2, 150 mM NaCl, 2 mM DTT, 37 °C, 15 nM enzyme, 20 min
T1 construct: C-terminal 6xHis tag, expressed in E. coli BL21(DE3), His-GraviTrap purified; catalytic triad E59, K134, C166

C=CC(N)=O [2] = assay: purified protein; conditions: 20 mM potassium phosphate pH 7.2, 150 mM NaCl, 2 mM DTT, 37 °C, 15 nM enzyme, 20 min

Substance	Km (C=CC(N)=O [1])	Vmax (C=CC(N)=O [1])	kcat (C=CC(N)=O [1])	kcat/Km (C=CC(N)=O [1])	Km (C=CC(N)=O [2])	Vmax (C=CC(N)=O [2])	kcat (C=CC(N)=O [2])	kcat/Km (C=CC(N)=O [2])
RAPc8 amidase (Bacillus sp. (in: firmicutes))	7.3 ± 0.1 mM	106 µM/min	118 ± 6.75 s⁻¹	16300 ± 1060 M⁻¹ s⁻¹	–	–	–	–
RAPc8 amidase (Bacillus sp. (in: firmicutes); A77T)	–	–	–	–	4.5 ± 0.2 mM	66.7 µM/min	74.1 ± 2.32 s⁻¹	16600 ± 357 M⁻¹ s⁻¹
RAPc8 amidase (Bacillus sp. (in: firmicutes); A77T/D294N/K342E/M203V/M45L)	–	–	–	–	7.4 ± 1.3 mM	176 µM/min	196 ± 17.9 s⁻¹	26800 ± 2390 M⁻¹ s⁻¹
RAPc8 amidase (Bacillus sp. (in: firmicutes); A77T/M203V)	–	–	–	–	4.6 ± 0.4 mM	64.7 µM/min	71.9 ± 5.14 s⁻¹	15600 ± 598 M⁻¹ s⁻¹
RAPc8 amidase (Bacillus sp. (in: firmicutes); M203V)	–	–	–	–	7.2 ± 1.1 mM	147 µM/min	163 ± 18.6 s⁻¹	22900 ± 1170 M⁻¹ s⁻¹
